The source of these data is patent publication US20140335146A1.

The target of assay [1] is collagen-exposing bone material of epiphysis (rat femur, 0.6 N hydrochloric acid for 18 hours) (rat (Wistar)). Briefly: depletion from supernatant, SDS-PAGE of supernatant (FIG. 3B).
Assay [2] has as its target collagen-exposing bone material of diaphysis (rat femur, 0.6 N hydrochloric acid for 18 hours) (rat (Wistar)). Briefly: depletion from supernatant, SDS-PAGE of supernatant (FIG. 4B).

As for bFGF-PKD-CBD fusion protein, the amount of bone material at which the fusion protein (1.16 nmol) in the supernatant nearly disappeared turned out to be 40 mg in assay [1] and 80 mg in assay [2].
